The values that follow come from paper PMC13463089, “PA200 modulates immunoproteasome structure and activity” (Nature Communications, 2026).

By stoichiometry N is commonly meant the number of molecules, sites or subunits per partner or assembly.

Numbered stars: 1 amine (or outer) side, 2 acyl side, 3 side chain; on linkers, the order of the positions; unused ones are H or OH. Peptide text beside a SMILES is read from it. * marks the point of attachment. AMC = Cc1cc(=O)oc2cc(N*)ccc12; Suc = O=C(CCC(=O)[*:2])[*:1]

For assay [1], the target named is T1, i20S (20S immunoproteasome), beta5i site (Homo sapiens, UniProt P28062).
T1 construct: gene PSMB8; with Proteasome subunit beta type-9; Proteasome subunit beta type-10; Proteasome subunit alpha type-6; Proteasome subunit alpha type-2; Proteasome subunit alpha type-4; Proteasome subunit alpha type-7; Proteasome subunit alpha type-5; Proteasome subunit alpha type-1; Proteasome subunit alpha type-3; Proteasome subunit beta type-3; Proteasome subunit beta type-2; Proteasome subunit beta type-1; Proteasome subunit beta type-4
T1 sequence (P28062 73-276): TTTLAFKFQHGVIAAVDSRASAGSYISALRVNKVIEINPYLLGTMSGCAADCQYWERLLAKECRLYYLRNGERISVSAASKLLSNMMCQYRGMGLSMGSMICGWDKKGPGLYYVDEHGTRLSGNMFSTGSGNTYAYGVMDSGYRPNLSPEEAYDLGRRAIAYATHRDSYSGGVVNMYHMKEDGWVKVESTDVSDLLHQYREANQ
Description: fluorogenic AMC release. The note with it: chymotrypsin-like (beta5i) site; 200 uM substrate, 1.5 nM 20S, pH 7.6, 37 C. Type of assay: biochemical.

Assay [2] has as its target T2, s20S (standard 20S proteasome), beta5 site (Homo sapiens, UniProt P28074).
T2 construct: gene PSMB5; with Proteasome subunit beta type-6; Proteasome subunit beta type-7; Proteasome subunit alpha type-6; Proteasome subunit alpha type-2; Proteasome subunit alpha type-4; Proteasome subunit alpha type-7; Proteasome subunit alpha type-5; Proteasome subunit alpha type-1; Proteasome subunit alpha type-3; Proteasome subunit beta type-3; Proteasome subunit beta type-2; Proteasome subunit beta type-1; Proteasome subunit beta type-4
T2 sequence (P28074 60-263): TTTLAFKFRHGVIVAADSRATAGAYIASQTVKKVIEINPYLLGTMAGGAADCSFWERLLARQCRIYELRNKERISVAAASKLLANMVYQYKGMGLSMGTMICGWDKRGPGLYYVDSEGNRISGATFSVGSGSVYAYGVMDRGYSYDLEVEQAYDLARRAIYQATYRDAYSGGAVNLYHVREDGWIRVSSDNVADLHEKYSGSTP
In words: fluorogenic AMC release. Type of assay: biochemical. The note with it: chymotrypsin-like (beta5) site; 200 uM substrate, 1.5 nM 20S, pH 7.6, 37 C.

Assay [3] deals with human i20S purified from HEK293-EBNA cells (human) (UniProt P60900). Description: mass photometry; 20S at 120 nM titrated with PA200 (PA200:20S molar ratios from 0 to 15), Tris 50 mM pH 7.6, 2 h on ice, diluted six times to 20 nM 20S immediately before measurement; apparent KD from counts of free, singly- and doubly-capped 20S.
Assay [4] concerns the target human standard 20S proteasome (s20S) purchased from Enzo (human) (UniProt P60900). The assay is described as above.
For assay [5], the target named is T3, recombinantly expressed and purified human PA200 (human), Q14997.
T3 chain: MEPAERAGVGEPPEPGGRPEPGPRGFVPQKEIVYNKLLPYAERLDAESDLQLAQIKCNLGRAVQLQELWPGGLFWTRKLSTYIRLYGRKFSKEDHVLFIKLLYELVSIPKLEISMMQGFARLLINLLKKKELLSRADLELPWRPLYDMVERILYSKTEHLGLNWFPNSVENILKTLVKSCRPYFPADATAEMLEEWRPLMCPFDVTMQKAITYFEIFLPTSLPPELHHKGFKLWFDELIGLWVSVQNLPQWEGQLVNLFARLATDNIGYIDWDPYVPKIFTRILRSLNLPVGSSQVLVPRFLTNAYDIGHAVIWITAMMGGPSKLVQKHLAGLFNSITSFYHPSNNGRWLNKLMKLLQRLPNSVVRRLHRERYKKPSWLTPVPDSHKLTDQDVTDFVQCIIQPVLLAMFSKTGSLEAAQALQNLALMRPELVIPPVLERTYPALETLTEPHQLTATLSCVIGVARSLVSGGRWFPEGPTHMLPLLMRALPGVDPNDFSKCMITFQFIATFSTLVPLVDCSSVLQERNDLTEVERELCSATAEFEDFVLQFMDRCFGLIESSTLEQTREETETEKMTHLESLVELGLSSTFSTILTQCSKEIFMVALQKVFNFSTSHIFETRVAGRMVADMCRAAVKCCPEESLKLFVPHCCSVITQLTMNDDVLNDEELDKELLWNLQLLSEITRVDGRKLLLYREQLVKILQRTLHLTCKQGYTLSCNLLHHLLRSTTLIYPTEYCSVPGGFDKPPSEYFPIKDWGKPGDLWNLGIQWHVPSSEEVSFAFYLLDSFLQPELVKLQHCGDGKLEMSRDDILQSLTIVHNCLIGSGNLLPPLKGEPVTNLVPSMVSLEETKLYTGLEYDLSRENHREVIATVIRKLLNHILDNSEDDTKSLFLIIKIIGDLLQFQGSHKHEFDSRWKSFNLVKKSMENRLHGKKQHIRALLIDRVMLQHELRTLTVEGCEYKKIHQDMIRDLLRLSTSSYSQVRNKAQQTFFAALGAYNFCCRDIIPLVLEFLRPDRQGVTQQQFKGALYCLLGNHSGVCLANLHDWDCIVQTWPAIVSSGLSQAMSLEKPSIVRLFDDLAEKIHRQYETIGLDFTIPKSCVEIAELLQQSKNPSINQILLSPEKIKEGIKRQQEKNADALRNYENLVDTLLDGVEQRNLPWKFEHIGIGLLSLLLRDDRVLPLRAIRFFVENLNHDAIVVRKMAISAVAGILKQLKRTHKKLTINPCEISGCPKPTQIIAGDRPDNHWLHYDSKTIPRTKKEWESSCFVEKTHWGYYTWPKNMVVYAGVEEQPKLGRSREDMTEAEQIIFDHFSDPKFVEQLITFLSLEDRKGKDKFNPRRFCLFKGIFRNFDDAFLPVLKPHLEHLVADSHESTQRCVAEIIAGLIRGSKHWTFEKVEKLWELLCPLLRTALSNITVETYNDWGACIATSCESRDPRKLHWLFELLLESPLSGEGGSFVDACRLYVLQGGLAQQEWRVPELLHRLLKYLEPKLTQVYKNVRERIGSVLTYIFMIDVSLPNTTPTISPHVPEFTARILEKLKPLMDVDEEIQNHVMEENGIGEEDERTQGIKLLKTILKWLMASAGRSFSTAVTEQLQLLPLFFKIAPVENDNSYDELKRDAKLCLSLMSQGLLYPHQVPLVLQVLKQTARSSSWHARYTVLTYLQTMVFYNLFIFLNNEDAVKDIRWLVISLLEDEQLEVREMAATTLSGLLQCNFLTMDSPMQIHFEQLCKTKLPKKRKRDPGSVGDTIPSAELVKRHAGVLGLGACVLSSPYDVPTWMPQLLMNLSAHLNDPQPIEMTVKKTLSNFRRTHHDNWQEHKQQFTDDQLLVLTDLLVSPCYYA
The description is as above. The conditions noted are these: remark: other sources report otherwise.

In the case of `Cc1cc(=O)oc2cc(NC(=O)[C@H](Cc3ccc(O)cc3)NC(=O)[C@@H](NC(=O)[C@H](CC(C)C)NC(=O)[C@H](CC(C)C)NC(=O)CCC(=O)O)C(C)C)ccc12` [Suc-LLVY-AMC] (Suc-LLVY-{AMC}), the “fluorogenic AMC release” value is “the baseline CT-L and T-L activities of the i20S and s20S were similar” in assay [1]; “the baseline CT-L and T-L activities of the i20S and s20S were similar” in assay [2].

Take “recombinantly expressed and purified human PA200 (from UniProt Q14997 1-1843) (natural protein)”: the apparent KD of the first PA200 binding event in assay [3] and in assay [4] was 40 nM each time. The apparent KD of the second PA200 binding event in assay [3] and in assay [4] was 150 nM throughout.

B1: recombinantly expressed and purified human PA200, Q14997 1-1843 (natural protein)
chain: MEPAERAGVGEPPEPGGRPEPGPRGFVPQKEIVYNKLLPYAERLDAESDLQLAQIKCNLGRAVQLQELWPGGLFWTRKLSTYIRLYGRKFSKEDHVLFIKLLYELVSIPKLEISMMQGFARLLINLLKKKELLSRADLELPWRPLYDMVERILYSKTEHLGLNWFPNSVENILKTLVKSCRPYFPADATAEMLEEWRPLMCPFDVTMQKAITYFEIFLPTSLPPELHHKGFKLWFDELIGLWVSVQNLPQWEGQLVNLFARLATDNIGYIDWDPYVPKIFTRILRSLNLPVGSSQVLVPRFLTNAYDIGHAVIWITAMMGGPSKLVQKHLAGLFNSITSFYHPSNNGRWLNKLMKLLQRLPNSVVRRLHRERYKKPSWLTPVPDSHKLTDQDVTDFVQCIIQPVLLAMFSKTGSLEAAQALQNLALMRPELVIPPVLERTYPALETLTEPHQLTATLSCVIGVARSLVSGGRWFPEGPTHMLPLLMRALPGVDPNDFSKCMITFQFIATFSTLVPLVDCSSVLQERNDLTEVERELCSATAEFEDFVLQFMDRCFGLIESSTLEQTREETETEKMTHLESLVELGLSSTFSTILTQCSKEIFMVALQKVFNFSTSHIFETRVAGRMVADMCRAAVKCCPEESLKLFVPHCCSVITQLTMNDDVLNDEELDKELLWNLQLLSEITRVDGRKLLLYREQLVKILQRTLHLTCKQGYTLSCNLLHHLLRSTTLIYPTEYCSVPGGFDKPPSEYFPIKDWGKPGDLWNLGIQWHVPSSEEVSFAFYLLDSFLQPELVKLQHCGDGKLEMSRDDILQSLTIVHNCLIGSGNLLPPLKGEPVTNLVPSMVSLEETKLYTGLEYDLSRENHREVIATVIRKLLNHILDNSEDDTKSLFLIIKIIGDLLQFQGSHKHEFDSRWKSFNLVKKSMENRLHGKKQHIRALLIDRVMLQHELRTLTVEGCEYKKIHQDMIRDLLRLSTSSYSQVRNKAQQTFFAALGAYNFCCRDIIPLVLEFLRPDRQGVTQQQFKGALYCLLGNHSGVCLANLHDWDCIVQTWPAIVSSGLSQAMSLEKPSIVRLFDDLAEKIHRQYETIGLDFTIPKSCVEIAELLQQSKNPSINQILLSPEKIKEGIKRQQEKNADALRNYENLVDTLLDGVEQRNLPWKFEHIGIGLLSLLLRDDRVLPLRAIRFFVENLNHDAIVVRKMAISAVAGILKQLKRTHKKLTINPCEISGCPKPTQIIAGDRPDNHWLHYDSKTIPRTKKEWESSCFVEKTHWGYYTWPKNMVVYAGVEEQPKLGRSREDMTEAEQIIFDHFSDPKFVEQLITFLSLEDRKGKDKFNPRRFCLFKGIFRNFDDAFLPVLKPHLEHLVADSHESTQRCVAEIIAGLIRGSKHWTFEKVEKLWELLCPLLRTALSNITVETYNDWGACIATSCESRDPRKLHWLFELLLESPLSGEGGSFVDACRLYVLQGGLAQQEWRVPELLHRLLKYLEPKLTQVYKNVRERIGSVLTYIFMIDVSLPNTTPTISPHVPEFTARILEKLKPLMDVDEEIQNHVMEENGIGEEDERTQGIKLLKTILKWLMASAGRSFSTAVTEQLQLLPLFFKIAPVENDNSYDELKRDAKLCLSLMSQGLLYPHQVPLVLQVLKQTARSSSWHARYTVLTYLQTMVFYNLFIFLNNEDAVKDIRWLVISLLEDEQLEVREMAATTLSGLLQCNFLTMDSPMQIHFEQLCKTKLPKKRKRDPGSVGDTIPSAELVKRHAGVLGLGACVLSSPYDVPTWMPQLLMNLSAHLNDPQPIEMTVKKTLSNFRRTHHDNWQEHKQQFTDDQLLVLTDLLVSPCYYA
Consider B1, for which the stoichiometry N in assay [5] was 2.
